Laboratory results as given in US20210017287A1 (published 2021).
Where a chain is given by its changes, count along the chain named.

T1: TNFRSF25-Fc fusion protein (UniProt Q93038 25-199, limits assumed, biotinylated in the capture ELISA (site not stated))
T1 construct: also called TNFRSF25-Fc protein; biotinylated antigen protein; not shown: Fc part
T1 sequence (looked up): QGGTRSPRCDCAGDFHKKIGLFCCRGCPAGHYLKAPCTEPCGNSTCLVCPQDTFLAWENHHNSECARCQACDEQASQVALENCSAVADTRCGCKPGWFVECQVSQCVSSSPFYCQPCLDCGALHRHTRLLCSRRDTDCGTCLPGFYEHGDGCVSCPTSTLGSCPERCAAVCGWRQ

B1: 42G2 (scFv, V domains shown)
VH: EVQLVESGGGLSQPGNSLQLSCEASGFTFSNHDLNWVRQAPGKGLEWVAYISSASGLISYADAVRGRFTISRDNAKNSLFLQMNNLKSEDTAMYYCARDPPYSGLYALDFWGQGTQVTVSS
VL: QPVLTQSPSASASLSGSVKLTCTLSSELSWYTIVWYQQRPDKAPKYVMYLKSDGSHSKGDGIPDRFSGSSSGAHRYLSISNVQSEDDATYFCGAGYTLAGQYGWVFGSGTKVTVL
notes: scFv
B2: 1F10 (scFv, V domains shown)
VH: B1 VH with P101A, S103T
VL: B1 VL with W30N, Y31F, G100S
notes: scFv; Frameworks and unchanged CDRs are those of the parental clone
B3: W3072-z4C12-scFv (scFv, V domains shown)
VH: B1 VH
VL: B1 VL with W30S
notes: scFv (captured by anti-c-myc antibody); also called WT; wild-type
B4: 5E1 (scFv, V domains shown)
VH: B1 VH with P101A, S103T
VL: B1 VL with W30N, A94M, G100N
notes: as for B2
B5: 4B6 (scFv, V domains shown)
VH: B1 VH with P101A, S103T
VL: B1 VL with W30N, G100N
notes: as for B2
B6: 2A5 (scFv, V domains shown)
VH: B1 VH with P101A, S103T
VL: B1 VL with W30N, Y31F, A94M, G100N
notes: as for B2
B7: 10B8 (scFv, V domains shown)
VH: B1 VH with P101A
VL: B1 VL with W30N, Y31F
notes: as for B2
B8: 3G4 (scFv, V domains shown)
VH: B1 VH with P101A, S103T
VL: B1 VL with W30G, Y31F, G100R
notes: as for B2
B9: 9A5 (scFv, V domains shown)
VH: B1 VH with P101A, S103T
VL: B1 VL with W30G, Y31F, G100N
notes: as for B2
B10: 6G11 (scFv, V domains shown)
VH: B1 VH
VL: B1 VL with W30N, Y31F
notes: as for B2
B11: 9G2 (scFv, V domains shown)
VH: B1 VH with P101A, S103T
VL: B1 VL
notes: as for B2
B12: 5A6 (scFv, V domains shown)
VH: B1 VH with S103T
VL: B1 VL with W30N, Y31F, G100N
notes: as for B2
B13: 42F9 (scFv, V domains shown)
VH: B1 VH
VL: B1 VL with W30F
B14: 66B8 (scFv, V domains shown)
VH: B1 VH
VL: B1 VL with W30S, G100N
B15: 43F11 (scFv, V domains shown)
VH: B1 VH
VL: B1 VL with W30S, Y31F
B16: 42H8 (scFv, V domains shown)
VH: B1 VH
VL: B1 VL with W30Y
B17: 10C3 (scFv, V domains shown)
VH: B1 VH with A54D
VL: B1 VL with W30S
notes: scFv
B18: 12F7 (scFv, V domains shown)
VH: B1 VH with G56Q
VL: B1 VL with W30S
notes: scFv; Position 12 is a library position read from the clone ID

Each binder was assayed against T1, TNFRSF25-Fc fusion protein (assay: capture ELISA of scFv, against W3072-z4C12-scFv).
Procedure: (§1) Primary screening of the scFv library: The primary screen consisted of a single point ELISA (SPE) assay, which was carried out using periplasmic extract (PE) of bacteria grown in 96-well (deep well) plates. Briefly, this capture ELISA involved coating individual wells of a 96-well Maxisorp Immunoplate with anti-c-myc antibody in coating buffer (200 mM Na₂CO₃/NaHCO₃) at pH 9.2 overnight at 4° C. The next day, the plate was blocked with Casein for 1 hour at room temperature. scFv PE was then added to the plate and incubated at room temperature for 1 hour. After washing, biotinylated antigen protein was added to the well and the mixture was incubated for 1 hour at room temperature. This was followed by incubation with streptavidin-horseradish peroxidase (HRP) conjugate for 1 hour at room temperature. HRP activity was detected with tetra-methyl-benzidine (TMB) substrate, and the reaction was quenched with 2M HCl. Plates were read at 450 nm. […] The scFv protein concentration was determined by comparing the ELISA signals with signals generated by the reference scFv. The binding assay was repeated once more for all positive variants under normalized scFv concentrations in order to determine the relative binding affinity of the mutant scFv and the parental antibody. Selected scFv hits displaying improved binding were re-formulated to IgG1 and tested in a caspase-3 assay as described below.

| fold increase in ELISA signal [fold] | Binder |
| --- | --- |
| > 10 | B1 |

These binders were tested against T1, TNFRSF25-Fc fusion protein (assay: binding ELISA of scFv clones on TNFRSF25-Fc (FIG. 10)).

| Bmax | Binder |
| --- | --- |
| 1.73 | B2 |
| 0.1 | B3 |
| 1.32 | B4 |
| 1.26 | B5 |
| 1.28 | B6 |
| 1.49 | B7 |
| 1.53 | B8 |
| 1.81 | B9 |
| 1.32 | B10 |
| 1.04 | B11 |
| 1.89 | B12 |
| 0.447 | B1 |

Each binder was assayed against T1, TNFRSF25-Fc fusion protein (assay: single point capture ELISA, scFv captured by anti-c-myc, biotinylated antigen).
Procedure: as §1

| OD450 [OD450] | Binder |
| --- | --- |
| 2.33 | B13 |
| 0.4 | B14 |
| 1.6 | B15 |
| 1.67 | B16 |
| 0.7 | B17 |
| 0.85 | B18 |
| 3.19 | B1 |
